Experimental data taken from patent publication US11904004B2, “Anti-CD277 antibodies” (INSTITUT NATIONAL DE LA SANTE ET DE LA RECHERCHE MEDICALE …, priority 2010, dated 2024).

Columns and labels:
Assay type in all cases: cell-based, human
monocytes = test: Costimulatory molecules expression on monocytes, flow cytometry
Procedure: (§1) Blood samples were obtained from 5 healthy volunteers enrolled among the staff members, after informed consent. Monocytes were separated from peripheral blood mononuclear cells, and isolated using the MACS CD14 isolation kit (Miltenyi Biotech, Auburn, Calif. USA). Monocytes were cultured for 5 days with 200 ng/ml of recombinant human GM-CSF and 10 ng/ml recombinant human IL-4 (Schering-Plough Research Institute). These cells were termed immature dendritic cells (iDC). To achieve the stimulation, monocytes and iDC were cultured with 10 ng/ml of LPS, ligand for TLR4, 30 μg/ml of 8848 (Sigma-Aldrich, Milano, Italy), ligand for TLR7/8 and with […] of poly (I:C) (Sigma-Aldrich), ligand for TLR3, and were harvested after 48 h. The cells were cultured in RPMI 1640 supplemented with 10% heat-inactivated FCS, 5 mM L-glutamine and 50 IU/ml penicillin-streptomycin (from here on referred to as complete medium).
Monocytes and iDCs before and after stimulation were analysed by imunofluorescence flow cytometry (FACScalibur Becton Dickinson, Milano, Italy) to verify their activation state. To this end, mAb specific for CD80, CD86, HLA-DR, CD1a, CD14 (BD Becton Dickinson), BT3 (clone 20.1, IgG1) and BT3 Fab2 were previously selected, purified and characterised (Bensussan and Olive, 2005, Compte et al., 2004) or irrelevant molecules (anti-CD19, Becton Dickinson, and anti-CD31, clone Moon-1, provided by F. Malavasi, both IgG1) were used. All the available anti-BT3 mAbs are unable to discriminate among the three members of this family (BT3.1, BT3.2, or BT3.3), probably due to their high sequence homology (Compte et al., 2004, Bensussan and Olive, 2005). As further control, to block the possible effect of trace amounts of endotoxin, polymyxin B (10 μg/ml, Sigma-Aldrich) was added to the anti-BT3 mAb 20.1 before adding the cells.

CD4+ T cells = test: AKT and ERK phosphorylation, phosphoflow
Procedure: Human CD4^+ T cells were purified by negative selection from PBMCs using magnetic beads (MILTENYI BIOTEC®) according to the manufacturer's protocol. CD4 T cells were routinely more than 97% pure. Cells were incubated 24 hours in RPMI 1640 10% FBS at 37° C.
CD4^+ T cells were washed and stimulated at different times (2, 5, 10 and 30 minutes) with aAPC at a ratio of 1:3 (cells to beads) comprised of magnetic beads (DYNABEADS® M-450 Epoxy, Dynal Biotech) were coated with the following mAbs: anti-CD3 (OKT3), anti-human CD28 (CD28.2), and/or various concentrations of anti-human CD277 (CD277. 20.1 clone) or isotype control IgG1. These aAPCs were coated with suboptimal anti-CD3 Ab (5%), suboptimal levels of anti-CD28 Ab (10%), and either IgG1 Ab (CD3/CD28/IgG1), anti-CD277.20.1 Ab (CD3/CD28/CD277.20.1+IgG1), constituting the remaining 85% of protein added to the bead. The amount of protein was kept constant at […] by the addition of control IgG1. We examined the effect of mAbs CD277 clones engagement on AKT and ERK phosphorylation in CD4+T cells by PHOSPHOFLOW® proteomic method, which uses state-specific antibodies to detect target phosphoproteins by fluorescence-activated cell sorting (FACS). We assessed the activity of the signalling pathways after exposure of the cells to beads stimulations. We apply a sandwich-labeling method, which involves the application of a biotin-conjugated secondary antibody followed by detection with fluorescently conjugated streptavidin. […] Cells were permeabilized, fixed and analyzed after intracellular staining of the target phosphproteins (AKT and ERK) by the use of CYTOFIX/CYTOPERM® KIT and perm/wash buffer (BD Biosciences).

NK cells = test: Functional assay on NK cells, redirected cytolytic activity
Procedure: Fresh NK cells were sorted with EASY SEP® negative selection kit and incubated over night in medium completed with sub-optimal concentrations of IL-2 (100 U/ml) and IL-15 (10 ng/ml). NK cell receptors functions were tested in re-directed cytolytic experiments against the FcγR positive P815 mastocytoma murine cell line. Briefly, effector cells were incubated with P815 cells pre-coated for 30 minutes with the mAb of interest (irrelevant mouse IgG1: 11 μg/ml, anti-NKp46: 1 μg/ml, anti-DNAM: 5 μg/ml, anti-CD277 20.1: 10 μg/ml) according to a 1:1 Effector:Target (E/T) ratio. Cytotoxic tests were performed in 4-hours assays in the presence of GOLGISTOP® (protein transport inhibitor) and soluble CD107 (a&b)-FITC (both from BD Biosciences), afterward cells were stained for surface markers (CD56-PeCy7 (Beckman Coulter, Immunotech), fixed and permeabilized (CYTOFIX/CYTOPERM®) then stained with intracellular mAb (IFN-γ (Beckman Coulter, Immunotech)). Cells were finally re-suspended in PBS 2% para-formaldehyde and extemporaneously analyzed on a BD FACS CANTO® (BD Biosciences, San Jose, Calif.). The degree of activation of NK cells was measured based on the percentage of cells positive for CD107a and CD107b (degranulation) and/or the production of inflammatory cytokine (IFN-γ).

iDC = test: Costimulatory molecules expression on iDC, flow cytometry; conditions: coated mAb
Procedure: as §1
Monocytes and iDCs before and after stimulation were analysed by imunofluorescence flow cytometry (FACScalibur Becton Dickinson, Milano, Italy) to verify their activation state. […]

[1] = antibody-coated beads, anti-CD3 plus anti-CD277
[2] = with anti-CD3 plus anti-CD28, 2, 5, 10 and 30 minutes, dose and time dependent
[3] = with anti-NKp46 or anti-CD16, data not shown

B1: mAb 20.1: murine anti-CD277 antibody obtainable from the hybridoma CNCM I-4402; agonist (antibody, V domains shown)
VH: QVQLQQSGAELVKPGASVKLSCKASGYTFTRYYLYWVKQRPGQGLEWIGEINPNNGGTKFNEKFKSKATLTVDKSSRTTYIQLSSLTSEDSAVYYCSREDDYDGTPDAMDYWGQGTAVTVSS
VL: DIQMNQSPSSLSASLGDTITITCHASQNINLWLSWYQQRPGNIPKLLIYRASNLHTGVPSRFSGSGSATGFTLTISSLQPEDIATYYCQQGHSYPYTFGGGTKLDIK
Which “CD80 and HLA-DR molecules at the monocyte surface” value (monocytes; coated mAb) does the source give for B1 here?
The value was “up-regulation”.

And the “cell surface costimulatory molecule CD86 on monocytes” value (monocytes; coated mAb, 24 h stimulation)?
Its value is “up-regulation”.

What about the “activating effect in the presence of polymyxin B” value (monocytes; polymyxin B 10 μg/ml) of the same molecule?
Its value is “maintained”.

What about the “cellular activation with non-coated (soluble) mAb” value (monocytes; soluble mAb, no cross-linking, data not shown) of the same molecule?
The value was “no effect”.

And the “phosphorylation of AKT” value (CD4+ T cells; [1])?
Its value is “induced the phosphorylation”.

And the “phosphorylation of ERK” value (CD4+ T cells; [1])?
Its value is “induced the phosphorylation”.

And the “phosphorylation of AKT induced by CD3+CD28 stimulation” value (CD4+ T cells; [2])?
The value was “strongly up regulated”.

What about the “phosphorylation of ERK induced by CD3+CD28 stimulation” value (CD4+ T cells; [2]) of the same molecule?
Its value is “strongly up regulated”.

What about the “NK cell stimulation by CD277 mAb alone” value (NK cells; P815 redirected assay) of the same molecule?
Its value is “did not have any effect”.

And the “NK cell IFN-γ secretion, co-stimulation of NKp46 or CD16” value (NK cells; [3])?
Its value is “not affected”.

And the “NK cell cytotoxicity, co-stimulation of NKp46 or CD16” value (NK cells; [3])?
The value was “not affected”.

What about the “expression of CD80, CD86 and HLA-DR on iDC” value (iDC) of the same molecule?
The value was “increased expression”.
